Measured values reported in US20230020089A1.

Assays:
[1] = molecular target: […] presented by HLA-A*0201 (HCMV; human); test: cell-based or functional assay
[2] = molecular target: […] presented by HLA-A*0201 (EBV; human); test: cell-based or functional assay

“TCR recognizing […] presented by A*0201 (PDB #5D2N)” showed a luciferase induction, reporter T cells + U-87 APCs, short cassette 9AA (relative to uninfected controls) [1] of 33.6, a luciferase induction, reporter T cells + U-87 APCs, short cassette 17AA (relative to uninfected controls) [1] of 42.8 and a luciferase induction, reporter T cells + U-87 APCs, short cassette 25AA (relative to uninfected controls) [1] of 42.3. For the same substance, the luciferase induction, reporter T cells + U-87 APCs, short cassette AAY (relative to uninfected controls) [1] was 24.5, the luciferase induction, reporter T cells + U-87 APCs, short cassette DPP (relative to uninfected controls) [1] was 0.9 and the luciferase induction, reporter T cells + U-87 APCs, short cassette RR (relative to uninfected controls) [1] was 21.7. The luciferase induction, reporter T cells + U-87 APCs, targeting cassette A [1] was 32.5, the luciferase induction, reporter T cells + U-87 APCs, targeting cassette B [1] was 31.8 and the luciferase induction, reporter T cells + U-87 APCs, targeting cassette C [1] was 29.1. It also gave a luciferase induction, reporter T cells + U-87 APCs, targeting cassette D [1] of 29.1, a luciferase induction, reporter T cells + U-87 APCs, targeting cassette E [1] of 28.4 and a luciferase induction, reporter T cells + U-87 APCs, targeting cassette F [1] of 20.4. It also gave a luciferase induction, reporter T cells + U-87 APCs, targeting cassette G [1] of 35, a luciferase induction, reporter T cells + U-87 APCs, targeting cassette H [1] of 30.3 and a luciferase induction, reporter T cells + U-87 APCs, targeting cassette J [1] of 38.1. The luciferase induction, reporter T cells, short cassette AAY [1] was 24.5.

“TCR recognizing […] presented by A*0201 (PDB #3REV)” showed a luciferase induction, reporter T cells + U-87 APCs, short cassette 9AA (relative to uninfected controls) [2] of 12, a luciferase induction, reporter T cells + U-87 APCs, short cassette 17AA (relative to uninfected controls) [2] of 10.3 and a luciferase induction, reporter T cells + U-87 APCs, short cassette 25AA (relative to uninfected controls) [2] of 14.6. It also gave a luciferase induction, reporter T cells + U-87 APCs, short cassette AAY (relative to uninfected controls) [2] of 11.3, a luciferase induction, reporter T cells + U-87 APCs, short cassette DPP (relative to uninfected controls) [2] of 1.1 and a luciferase induction, reporter T cells + U-87 APCs, short cassette RR (relative to uninfected controls) [2] of 8.5. The luciferase induction, reporter T cells + U-87 APCs, targeting cassette A [2] was 6.1, the luciferase induction, reporter T cells + U-87 APCs, targeting cassette B [2] was 6.3 and the luciferase induction, reporter T cells + U-87 APCs, targeting cassette C [2] was 7.6. The luciferase induction, reporter T cells + U-87 APCs, targeting cassette D [2] was 7, the luciferase induction, reporter T cells + U-87 APCs, targeting cassette E [2] was 5.9 and the luciferase induction, reporter T cells + U-87 APCs, targeting cassette F [2] was 3.7. The luciferase induction, reporter T cells + U-87 APCs, targeting cassette G [2] was 7.6, the luciferase induction, reporter T cells + U-87 APCs, targeting cassette H [2] was 5.4 and the luciferase induction, reporter T cells + U-87 APCs, targeting cassette J [2] was 6.4. The luciferase induction, reporter T cells, short cassette AAY [2] was 11.3.
